{"source": "the RNAGym collection of RNA variant scans (doi:10.7554/elife.90254)", "parents": {"B1": {"name": "LINE1-full (parent)", "chain": "UACGUAGGUGGUUUUCCCCUGAUAGUGCUAAGGGGGCCUGGAAGUUUGGACUGGGCAGAGCUCAACACAGCGUGGCAAAGUGGCUGUGGCUAGACUGCCUCUCUGGAUUCCUCGUCACUCAGCAGGGCAUCUCUGAGAGAAAUGCC"}}, "data": [{"variants_of": "B1", "test": "self-cleavage, relative activity (ratio to wild type); higher = more cleavage; in vitro, sequencing; the parent is a self-cleaving ribozyme", "values": [{"variant": "UACAUAGGUGGUUUUCCCCUGAUAGUGCUAAGGGGGCCUGGAAGUUUGGACUGGGCAGAGCUCAACACAGCGUGGCAAAGUGGCUGUGGCUAGGCUGCCUCUCUGGAUUCCUCGUCACUCAGCAGGGCAUCUCUGAGAGAAAUGCC", "note": "[G4A A94G]", "self-cleavage": 0.21}, {"variant": "UACAUAGGUGGUUUUCCCCUGAUAGUGCUGAGGGGGCCUGGAAGUUUGGACUGGGCAGAGCUCAACACAGCGUGGCAAAGUGGCUGUGGCUAGACUGCCUCUCUGGAUUCCUCGUCACUCAGCAGGGCAUCUCUGAGAGAAAUGCC", "note": "[G4A A30G]", "self-cleavage": 0.59}, {"variant": "UACAUAGGUGGUUUUCCCCUGAUAGUGCUAAGGGGGCCUGGUAGUUUGGACUGGGCAGAGCUCAACACAGCGUGGCAAAGUGGCUGUGGCUAGACUGCCUCUCUGGAUUCCUCGUCACUCAGCAGGGCAUCUCUGAGAGAAAUGCC", "note": "[G4A A42U]", "self-cleavage": 0.78}, {"variant": "UAUGUAGGUGGUUUUCCCCUGAUAGUGCUAAGGGGGCCUGGAAGUUUGGACUGGGCAGAGCUCAACACAGCGUGGCAAAGUGGCUGUGGCUAGACUGCCUCUCUGGAUUCCUCGUCACUCAGCAGGGCACCUCUGAGAGAAAUGCC", "note": "[C3U U130C]", "self-cleavage": 0.31}, {"variant": "UAUGUAGGUGGUUUUCCCCUGAUAGUGCUAAGGGGGCCUGGAAGUUUGGACUGGGCAGAGCUCAACACAGCGUGGCAAAGUGGCUGUGGCUAGACUGCCUCUCUGGAUUCCUCGUCACACAGCAGGGCAUCUCUGAGAGAAAUGCC", "note": "[C3U U119A]", "self-cleavage": 0.83}, {"variant": "UAUGUAGGUGGUUUUCCCCUGAUAGUGCUAAGGGGGCCUGGAAGUUUGGACUGGGCAGAGCUCAACACAGCGUGGCAAAGUGGCUGUGGCUAGACUGCCUCUCUGGAUUCCUCGUCACGCAGCAGGGCAUCUCUGAGAGAAAUGCC", "note": "[C3U U119G]", "self-cleavage": 0.98}, {"variant": "UAUGUAGGUGGUUUUCCCCUGAUAGUGCUAAGGGGGCCUGGAAGUUUGGACUGGGCAGAGCUCAACACAGCGUGGCAAAGUGGCUGUGGCUAGACUGCCUCUCUGGAUUCCACGUCACUCAGCAGGGCAUCUCUGAGAGAAAUGCC", "note": "[C3U U112A]", "self-cleavage": 1.38}, {"variant": "UACAUAGGUGGUUUUCCCCUGAUAGUGCUAAGGGGGCCUGGAAGUUUGGACUGGGCAGAGCUCUACACAGCGUGGCAAAGUGGCUGUGGCUAGACUGCCUCUCUGGAUUCCUCGUCACUCAGCAGGGCAUCUCUGAGAGAAAUGCC", "note": "[G4A A64U]", "self-cleavage": 0.72}, {"variant": "UACAUAGGUGGUUUUCCCCUGAUAGUGCUAAGGGGGCCUGGAAGUUUGGACUGGGCAGGGCUCAACACAGCGUGGCAAAGUGGCUGUGGCUAGACUGCCUCUCUGGAUUCCUCGUCACUCAGCAGGGCAUCUCUGAGAGAAAUGCC", "note": "[G4A A59G]", "self-cleavage": 0.12}, {"variant": "UAUGUAGGUGGUUUUCCCCUGAUAGUGCUAAGGGGGCCUGGAAGUUUGGACUGGGCAGAGCUCAACACAGCGUGGCAAAGUGGCUGUGGCUAGACUGCCUCUCUGGAUUCCUCGUCACUCAGCAGGGCAUCUCUGAGAGAAACGCC", "note": "[C3U U143C]", "self-cleavage": 0.62}, {"variant": "UACAUAGGUGGUUUUCCCCUGAUAGUGCUAAGGGGGCCUGGAAGUUUGGACUGGGCAGAGCUCAACACAGCGUGGCAAAGUGGCUGUGGCUGGACUGCCUCUCUGGAUUCCUCGUCACUCAGCAGGGCAUCUCUGAGAGAAAUGCC", "note": "[G4A A92G]", "self-cleavage": 0}, {"variant": "UACAUAGGUGGUUUUCCCCUGAUUGUGCUAAGGGGGCCUGGAAGUUUGGACUGGGCAGAGCUCAACACAGCGUGGCAAAGUGGCUGUGGCUAGACUGCCUCUCUGGAUUCCUCGUCACUCAGCAGGGCAUCUCUGAGAGAAAUGCC", "note": "[G4A A24U]", "self-cleavage": 1.8}, {"variant": "UACAUAGGUGGUUUUCCCCUGAUAGUGCUAAGGGGGCCUGGAUGUUUGGACUGGGCAGAGCUCAACACAGCGUGGCAAAGUGGCUGUGGCUAGACUGCCUCUCUGGAUUCCUCGUCACUCAGCAGGGCAUCUCUGAGAGAAAUGCC", "note": "[G4A A43U]", "self-cleavage": 1.21}, {"variant": "UACAUAGGUGGUUUUCCCCUGAUAGUGCUAAGGGGGCCUGGAAGUUUGGACUGGGCAGAGCUCAACGCAGCGUGGCAAAGUGGCUGUGGCUAGACUGCCUCUCUGGAUUCCUCGUCACUCAGCAGGGCAUCUCUGAGAGAAAUGCC", "note": "[G4A A67G]", "self-cleavage": 0.62}, {"variant": "UACAUAGGUGGUUUUCCCCUGAUAGUGCUAAGGGGGCCUGGAAGUUUGGACUGGGCAGAGCUCAACACAGCGUGGCAAAGUGGCUGUGGCUAGACUGCCUCUCUGGAUUCCUCGUCACUCAGCAGGGCAUCUCUGAGAGAAAUGCC", "note": "[G4A]", "self-cleavage": 0.89}, {"variant": "UACAUAGGUGGUUUUCCCCUGAUAGUGCUAGGGGGGCCUGGAAGUUUGGACUGGGCAGAGCUCAACACAGCGUGGCAAAGUGGCUGUGGCUAGACUGCCUCUCUGGAUUCCUCGUCACUCAGCAGGGCAUCUCUGAGAGAAAUGCC", "note": "[G4A A31G]", "self-cleavage": 0.6}, {"variant": "UAUGUAGGUGGUUUUCCCCUGAUAGUGCUAAGGGGGCCUGGAAGUUUGGACUGGGCAGAGCUCAACACAGCGUGGCAAAGUGGCUGUGGCUAGACUGCCUCUCCGGAUUCCUCGUCACUCAGCAGGGCAUCUCUGAGAGAAAUGCC", "note": "[C3U U104C]", "self-cleavage": 1.53}, {"variant": "UACAUAGGUGGUUUUCCCCUGAUAGUGCUAAGGGGGCCUGGAAGUUUGGACUGGGCAGAGCUCAACACAGCGUGGCAAAGUGGCUGUGGCUAGACUGCCUCUCUGGGUUCCUCGUCACUCAGCAGGGCAUCUCUGAGAGAAAUGCC", "note": "[G4A A107G]", "self-cleavage": 1.6}, {"variant": "UACAUAGGUGGUUUUCCCCUGAUAGUGCUAAGGGGGCCUGGAAGUUUGGACUGGGCAGAGCUCAACACAGCGUGGCAAAGUGGCUGUGGCUAGACUGCCUCUCUGGAUUCCUCGUCACUCGGCAGGGCAUCUCUGAGAGAAAUGCC", "note": "[G4A A121G]", "self-cleavage": 1.78}, {"variant": "UAUGUAGGUGGUUUUCCCCUGAUAGUGCUAAGGGGGCCUGGAAGUUUGGACUGGGCAGAGCUCAACACAGCGUGGCAAAGUGGCUGUGGCUAGACUGCCUCUCUGGAUUCCUCGUCACUCAGCAGGGCAUCCCUGAGAGAAAUGCC", "note": "[C3U U132C]", "self-cleavage": 1.1}]}]}
